Reference: patent US20200199567A1, “METHODS FOR SELECTION AND EXPANSION OF T CELLS EXPRESSING PD-1” (MEDIMMUNE, LLC, priority 2018, published 2020)

Experiments:
[1] = tested on: PD-1 expression in peripheral blood; test: PD-1 expression in peripheral blood after anti-CTLA-4 pre-treatment, Taqman qRT-PCR; type: in vivo, human
Method: The effect of anti-CTLA-4 antibody (tremelimumab) pre-treatment on PD-1 expression in peripheral blood was tested by Taqman qRT-PCR.

PD-1 = PD-1 (Homo sapiens, UniProt Q15116); test: Binding affinity of anti-PD-1 antibody
PD-1 expressing T cells = test: Magnetic bead enrichment (selection) of PD-1 expressing T cells with biotinylated anti-PD-1 antibody; type: cell-based, human; conditions: 4° C.
Method: Donor blood was obtained in the form of human peripheral blood through standard leukapheresis or blood draw protocols. The red blood cells were removed from the donor blood by centrifugation protocols known in the art. Briefly, the peripheral blood was centrifuged, the supernatant discarded, the pellet was resuspended in ammonium chloride potassium (ACK) buffer, the ACK pellet suspension was incubated at room temperature, and the cells were washed twice in wash buffer to produce a cell pellet.
Enrichment of the PD-1 expressing cells was then performed. The washed cell pellet was resuspended in wash buffer and cell count determined. Wash buffer was added to bring the cell density to 100×10^6 cells per mL. 1 μg/mL MEDI3097 antibody was added to the cells to produce an antibody-cell mixture comprising cells and MEDI3097 antibody. The antibody mixture was incubated at 4° C. for 15 minutes and then centrifuged and washed twice with wash buffer. Wash buffer was added to bring cell density to 125×10^6 cells per mL. Anti-biotin beads were then added to the cells at a concentration of 2 mL beads per 1 billion cells to produce a bead mixture. […]
Enrichment of PD-1 expressing T cells was performed after red blood cells were removed from leukapheresis products. The washed cell pellet was resuspended in wash buffer and cell count determined. […]

Chain of PD-1 (Q15116 25-288): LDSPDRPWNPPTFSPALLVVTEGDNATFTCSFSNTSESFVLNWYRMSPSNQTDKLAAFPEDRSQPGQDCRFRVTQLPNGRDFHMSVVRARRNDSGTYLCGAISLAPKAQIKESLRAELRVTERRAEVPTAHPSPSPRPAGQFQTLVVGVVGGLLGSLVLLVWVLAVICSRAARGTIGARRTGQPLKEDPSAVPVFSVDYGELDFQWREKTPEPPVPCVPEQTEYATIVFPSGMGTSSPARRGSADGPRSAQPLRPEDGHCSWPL

Molecule | overall survival (OS) of patients with induced PD-1 expression ([1]; high responder group versus <1.5 fold group, clinical trial NTC02527434) | increase PD-1 expression in peripheral blood ([1]; in a group of patients, after 9-10 days) [fold] | binding affinity (PD-1) | antibody concentration at which impact on PD-1 expression level plateaued (PD-1 expressing T cells)
tremelimumab: anti-CTLA-4 antibody | improved overall survival | > 1.5 |  | 
MEDI0680: anti-PD-1 antibody (antibody, V domains shown) VH: EVQLVESGGGLVQPGGSLRLSCAASGFTFSDYGMHWVRQAPGKGLEWVAYISSGSYTIYSADSVKGRFTISRDNAKNTLYLQMSSLRAEDTAVYYCARRGYGSFYEYYFDYWGQGTTVTVSS VL: QIVLTQSPATLSLSPGERATLSCSASSSVSYMYWYQQKPGQAPRLLIYLTSNRATGIPARFSGSGSGTDYSSTLTISSLEPEDFAVYYCQQWSSNPFTFGQGTKLEIK |  |  | low binding affinity | around 5.0 μg/mL
LO115: anti-PD-1 antibody (antibody) heavy: EVQLVESGGGLVQPGGSLRLSCAASGFTFSDYGMHWVRQAPGKGLEWVAYISSGSYTIYSADSVKGRFTISRDNAKNSLYLQMNSLRAEDTAVYYCARRAPNSFYEYYFDYWGQGTTVTVSSASTKGPSVFPLAPSSKSTSGGTAALGCLVKDYFPEPVTVSWNSGALTSGVHTFPAVLQSSGLYSLSSVVTVPSSSLGTQTYICNVNHKPSNTKVDKRVEPKSCDKTHTCPPCPAPEFEGGPSVFLFPPKPKDTLMISRTPEVTCVVVDVSHEDPEVKFNWYVDGVEVHNAKTKPREEQYNSTYRVVSVLTVLHQDWLNGKEYKCKVSNKALPASIEKTISKAKGQPREPQVCTLPPSREEMTKNQVSLSCAVKGFYPSDIAVEWESNGQPENNYKTTPPVLDSDGSFFLVSKLTVDKSRWQQGNVFSCSVMHEALHNHYTQKSLSLSPGK light: QIVLTQSPATLSLSPGERATLSCSASSKHTNLYWSRHMYWYQQKPGQAPRLLIYLTSNRATGIPARFSGSGSGTDFTLTISSLEPEDFAVYYCQQWSSNPFTFGQGTKLEIKRTVAAPSVFIFPPSDEQLKSGTASVVCLLNNFYPREAKVQWKVDNALQSGNSQESVTEQDSKDSTYSLSSTLTLSKADYEKHK |  |  | high binding affinity | 
